Assay results published in patent US20190241648A1 (STATEN BIOTECHNOLOGY B V, published 2019).
Ends that are not written are not given here.

Experiments:
[1] = target: T1, ApoC3 peptide … F61I (human, cyclic constrained); assay: cyclic peptide substitution array
T1 peptide: DKISEFWDLDPEV

[2] = target: ApoC3 peptide … E63W (human, cyclic constrained); assay: cyclic peptide substitution array
[3] = target: T2, ApoC3 peptide … L67N (human, not fully specified (bridges); also: cyclic constrained); assay: cyclic peptide substitution array
T2 peptide: DKFSEFWDNDPEV

[4] = target: T3, ApoC3 peptide W65F (human, not fully specified; cyclic (thioether)); assay: cyclic peptide substitution array
T3 peptide: DKFSEFFDLDPEV
Procedure, shortened: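 Peptide microarrays incubated with antibody samples, then stained with goat anti-human IgG (Fc) DyLight680 and anti-HA DyLight800 control antibodies, scanned at intensity 7/7 (red/green). Secondary-only pre-stain checked background binding; framing HA peptides served as quality control; substitution effects read as changes in spot intensity.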

[5] = target: ApoC3 peptide … E63K (human, cyclic constrained); assay: peptide microarray
Description: (§1) F64 was completely variable.
(§2) Pre: staining of one of the ApoC3 peptide microarrays was done with the secondary antibody goat anti-human IgG (Fe) DyLight680 (1:5000) and control antibody mouse monoclonal anti-HA (12CA5) DyLight800 (1:2000) to investigate background interactions of the secondary antibody with the antigen-derived peptides that could interfere with the main assays. Subsequent incubation of other ApoC3 peptide microarrays with antibody samples was followed by staining with secondary and control antibodies as well as read-out at scanning intensities of 7/7 (red/green). The additional HA peptides framing the peptide arrays were stained as internal quality control to confirm the assay quality and the peptide microarray integrity.

[6] = target: T4, ApoC3 peptide … P69L (human, not fully specified (bridges); also: cyclic constrained); assay: peptide microarray
T4 peptide: DKFSEFWDLDLEV
Description: as §1, §2

[7] = target: ApoC3 peptide … D68Y (human, cyclic constrained); assay: peptide microarray
Description: as §1, §2

[8] = target: T5, ApoC3 peptide … F64M (human, not fully specified (bridges); also: cyclic constrained); assay: peptide microarray
T5 peptide: DKFSEMWDLDPEV
Description: as §1, §2

[9] = target: T6, ApoC3 peptide … F61L (human, not fully specified (bridges); also: cyclic constrained); assay: peptide microarray
T6 peptide: DKLSEFWDLDPEV
Description: as §1, §2

[10] = target: T7, ApoC3 peptide … P69H (human, not fully specified (bridges); also: cyclic constrained); assay: peptide microarray
T7 peptide: DKFSEFWDLDHEV
Description: as §1, §2

[11] = target: T8, ApoC3 peptide … L67C (human, not fully specified (bridges); also: cyclic constrained); assay: peptide microarray
T8 peptide: DKFSEFWDCDPEV
Description: as §1, §2

[12] = target: T9, ApoC3 peptide … E70W (human, cyclic constrained); assay: peptide microarray
T9 peptide: DKFSEFWDLDPWV
Description: as §1, §2

[13] = target: T10, ApoC3 peptide … L67H (human, not fully specified (bridges); also: cyclic constrained); assay: peptide microarray
T10 peptide: DKFSEFWDHDPEV
Description: as §1, §2

[14] = target: T11, ApoC3 peptide … K60I (human, not fully specified (bridges); also: cyclic constrained); assay: peptide microarray
T11 peptide: DIFSEFWDLDPEV
Description: as §1, §2

[15] = target: T12, ApoC3 peptide … L67G (human, not fully specified (bridges); also: cyclic constrained); assay: peptide microarray
T12 peptide: DKFSEFWDGDPEV
Description: as §1, §2

[16] = target: T13, ApoC3 peptide … F64P (human, not fully specified (bridges); also: cyclic constrained); assay: peptide microarray
T13 peptide: DKFSEPWDLDPEV
Description: as §1, §2

[17] = target: ApoC3 peptide … E70A (human, cyclic constrained); assay: peptide microarray
Description: as §1, §2

[18] = target: ApoC3 peptide … P69S (human, cyclic constrained); assay: peptide microarray
Description: as §1, §2

[19] = target: ApoC3 peptide … V71Y (human, cyclic constrained); assay: peptide microarray
Description: as §1, §2

[20] = target: T14, ApoC3 peptide … F64R (human, not fully specified (bridges); also: cyclic constrained); assay: peptide microarray
T14 peptide: DKFSERWDLDPEV
Description: as §1, §2

[21] = target: T15, ApoC3 peptide … D66I (human, not fully specified (bridges); also: cyclic constrained); assay: peptide microarray
T15 peptide: DKFSEFWILDPEV
Description: as §1, §2

[22] = target: T16, ApoC3 peptide … D68C (human, not fully specified (bridges); also: cyclic constrained); assay: peptide microarray
T16 peptide: DKFSEFWDLCPEV
Description: as §1, §2

[23] = target: T17, ApoC3 peptide … K60H (human, not fully specified (bridges); also: cyclic constrained); assay: peptide microarray
T17 peptide: DHFSEFWDLDPEV
Description: as §1, §2

[24] = target: ApoC3 peptide … V71P (human, cyclic constrained); assay: peptide microarray
Description: as §1, §2

[25] = target: ApoC3 peptide … P69T (human, cyclic constrained); assay: peptide microarray
Description: as §1, §2

[26] = target: T18, ApoC3 peptide … F61A (human, cyclic constrained); assay: peptide microarray
T18 peptide: DKASEFWDLDPEV
Description: as §1, §2

[27] = target: T19, ApoC3 peptide L67A (human, not fully specified; cyclic (thioether)); assay: peptide microarray
T19 peptide: DKFSEFWDADPEV

[28] = target: T20, ApoC3 peptide S62F (human, not fully specified; cyclic (thioether)); assay: peptide microarray
T20 peptide: DKFFEFWDLDPEV

[29] = target: T21, ApoC3 peptide E63C (human, not fully specified; cyclic (thioether)); assay: peptide microarray
T21 peptide: DKFSCFWDLDPEV

[30] = target: T22, ApoC3 peptide L67E (human, thioether (positions not given here); not fully specified (bridges); also: thioether between a C-terminal Cys side chain and a modified N-terminus, the Cys is not in the chain); assay: peptide microarray
T22 peptide: DKFSEFWDEDPEV

[31] = target: T23, ApoC3 peptide E63Y (human, cyclic (thioether)); assay: peptide microarray
T23 peptide: DKFSYFWDLDPEV

[32] = target: T24, ApoC3 peptide … D45T (human); assay: peptide microarray
T24 sequence (peptide, cyclic constrained): ARGWVTTGFSSLK

[33] = target: T25, ApoC3 peptide … V43T (human); assay: peptide microarray
T25 sequence (peptide, cyclic constrained): ARGWTTDGFSSLK

[34] = target: T26, ApoC3 peptide … V43Q (human); assay: peptide microarray
T26 sequence (peptide, cyclic constrained): ARGWQTDGFSSLK

[35] = target: T27, ApoC3 peptide … G41V (human); assay: peptide microarray
T27 sequence (peptide, cyclic constrained): ARVWVTDGFSSLK

[36] = target: T28, ApoC3 peptide … V43W (human); assay: peptide microarray
T28 sequence (peptide, cyclic constrained): ARGWWTDGFSSLK

[37] = target: T29, ApoC3 peptide … G41P (human); assay: peptide microarray
T29 sequence (peptide, cyclic constrained): ARPWVTDGFSSLK

[38] = target: T30, ApoC3 peptide … G41T (human); assay: peptide microarray
T30 sequence (peptide, cyclic constrained): ARTWVTDGFSSLK

B1: Llama antibody 5E5 (antibody, V domains shown)
VH: QLQLVESGGGLVQPGGSLRLSCAASGFTFGTYSMRWVRQVPRKALEWVSSISTDGGGTAYRDSVKGRFTISRDNAKNTLYLQMNNLKPEDTAIYYCVIAGYSDWGQGTQVTVSS
VL: ATMLTQSPGSLSVVPGESASISCKTSQGLVHSDGKTYFYWFLQKPGQSPQQLIYQVSNRASGVPDRFTGSGSGTDFTLKISGVKAEDAGVYYCAQGTYYPHTFGSGTRLEIK
notes: detected with goat anti-human IgG (Fc); also called mAb 5E5
- % of binding to wild-type peptide [1]: 7.59%
- % of binding to wild-type peptide [2]: 9.57%
- % of binding to wild-type peptide [3]: 9.84%
- % of binding to wild-type peptide [4]: 5.5%

B2: anti-ApoC3 antibody 6A6 (antibody, V domains shown)
VH: EVQLVESGGGLVQPGGSLRLSCAASGFTFSSYAGRWVRQVPGKGLEWVSSINAGGGSTSYADSVKGRFTISRDNAKNTLYLQMNSLKPEDTAKYYCTQNSYRYWGQGTRVAVSS
VL: DVVLTQTPGSLSVVPGESASISCKASQSLIHTDGKTYLYWLLQKPGQRPQLLIYQVSSHESGVPDRFTGSGSGTDFTLKISGVKAEDAGVYYCAQATYNPRTFGQGTKLEIK
notes: it was detected with goat anti-human IgG (Fc); also called mAb 6A6; llama antibody 6A6
- % of binding to wild-type peptide [5]: 7.9%
- % of binding to wild-type peptide [6]: 36.8%
- % of binding to wild-type peptide [7]: 0%
- % of binding to wild-type peptide [8]: 109%
- % of binding to wild-type peptide [9]: 61.3%
- % of binding to wild-type peptide [10]: 19.2%
- % of binding to wild-type peptide [11]: 1.13%
- % of binding to wild-type peptide [12]: 2.84%
- % of binding to wild-type peptide [13]: 7.67%
- % of binding to wild-type peptide [14]: 116%
- % of binding to wild-type peptide [15]: 0.6%
- % of binding to wild-type peptide [16]: 285%
- % of binding to wild-type peptide [17]: 0.97%
- % of binding to wild-type peptide [18]: 75.6%
- % of binding to wild-type peptide [19]: 87.3%
- % of binding to wild-type peptide [20]: 79.1%
- % of binding to wild-type peptide [21]: 0%
- % of binding to wild-type peptide [22]: 5.29%
- % of binding to wild-type peptide [23]: 124%
- % of binding to wild-type peptide [24]: 110%
- % of binding to wild-type peptide [25]: 118%
- % of binding to wild-type peptide [26]: 41.1%
- % of binding to wild-type peptide [27]: 9.07%
- % of binding to wild-type peptide [28]: 9.54%
- % of binding to wild-type peptide [29]: 7.93%
- % of binding to wild-type peptide [30]: 8.52%
- % of binding to wild-type peptide [31]: 8.92%

B3: anti-ApoC3 antibody 14C7 (antibody, V domains shown)
VH: QVQVQESGPGLVKPSQTLSLTCTVSGGSITTNSYYWSWIRQPPGKGLEWMGAIDYSGDTYYSPSLKSRTSISRDTSKNQFTLQLTSVTPEDTAVYYCVSRIPTGEYWGQGTQVTVSS
VL: QTVVTQEPSLSVSPGGTVTLTCGLNSGSVTSSNYPDWYQQTPGQAPRLLIYNTNSRHSGVPSRFSGSISGNKAALTITGAQPEDEADYYCALYMGSDSVVFGGGTHLTVL
notes: it was detected with goat anti-human IgG (Fc); also called mAb 14C7; llama antibody 14C7
- % of binding to wild-type peptide [32]: 8.67%
- % of binding to wild-type peptide [33]: 9.94%
- % of binding to wild-type peptide [34]: 7.49%
- % of binding to wild-type peptide [35]: 8.76%
- % of binding to wild-type peptide [36]: 8.98%
- % of binding to wild-type peptide [37]: 8.7%
- % of binding to wild-type peptide [38]: 9.44%
